In the assay the target is T1, human integrin avb8 (human).
T1 chain 1: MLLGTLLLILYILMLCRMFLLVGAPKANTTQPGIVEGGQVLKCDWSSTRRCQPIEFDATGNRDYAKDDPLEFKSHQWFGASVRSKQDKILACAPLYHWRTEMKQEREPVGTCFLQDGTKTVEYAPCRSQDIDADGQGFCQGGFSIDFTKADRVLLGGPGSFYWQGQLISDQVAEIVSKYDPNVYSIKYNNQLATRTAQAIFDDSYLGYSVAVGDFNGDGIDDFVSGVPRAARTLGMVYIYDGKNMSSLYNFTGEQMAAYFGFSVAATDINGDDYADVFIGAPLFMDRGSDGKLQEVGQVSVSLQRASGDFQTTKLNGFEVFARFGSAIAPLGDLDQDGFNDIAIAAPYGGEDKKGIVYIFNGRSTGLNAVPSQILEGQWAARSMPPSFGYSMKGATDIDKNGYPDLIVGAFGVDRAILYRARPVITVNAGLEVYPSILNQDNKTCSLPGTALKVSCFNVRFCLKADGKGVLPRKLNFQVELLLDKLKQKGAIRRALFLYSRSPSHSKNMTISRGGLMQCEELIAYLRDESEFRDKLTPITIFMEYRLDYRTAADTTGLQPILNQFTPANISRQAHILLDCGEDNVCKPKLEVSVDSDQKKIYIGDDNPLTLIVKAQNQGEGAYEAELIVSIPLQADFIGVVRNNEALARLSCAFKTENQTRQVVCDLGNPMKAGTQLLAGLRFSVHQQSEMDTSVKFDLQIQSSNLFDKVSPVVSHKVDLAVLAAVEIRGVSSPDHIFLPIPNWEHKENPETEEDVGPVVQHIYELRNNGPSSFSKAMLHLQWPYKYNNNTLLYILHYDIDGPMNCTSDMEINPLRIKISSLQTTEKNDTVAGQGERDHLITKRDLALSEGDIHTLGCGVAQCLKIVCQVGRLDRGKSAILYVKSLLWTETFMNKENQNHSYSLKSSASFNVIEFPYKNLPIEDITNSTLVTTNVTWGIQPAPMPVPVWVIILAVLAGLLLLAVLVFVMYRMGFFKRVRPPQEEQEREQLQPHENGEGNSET
T1 chain 2: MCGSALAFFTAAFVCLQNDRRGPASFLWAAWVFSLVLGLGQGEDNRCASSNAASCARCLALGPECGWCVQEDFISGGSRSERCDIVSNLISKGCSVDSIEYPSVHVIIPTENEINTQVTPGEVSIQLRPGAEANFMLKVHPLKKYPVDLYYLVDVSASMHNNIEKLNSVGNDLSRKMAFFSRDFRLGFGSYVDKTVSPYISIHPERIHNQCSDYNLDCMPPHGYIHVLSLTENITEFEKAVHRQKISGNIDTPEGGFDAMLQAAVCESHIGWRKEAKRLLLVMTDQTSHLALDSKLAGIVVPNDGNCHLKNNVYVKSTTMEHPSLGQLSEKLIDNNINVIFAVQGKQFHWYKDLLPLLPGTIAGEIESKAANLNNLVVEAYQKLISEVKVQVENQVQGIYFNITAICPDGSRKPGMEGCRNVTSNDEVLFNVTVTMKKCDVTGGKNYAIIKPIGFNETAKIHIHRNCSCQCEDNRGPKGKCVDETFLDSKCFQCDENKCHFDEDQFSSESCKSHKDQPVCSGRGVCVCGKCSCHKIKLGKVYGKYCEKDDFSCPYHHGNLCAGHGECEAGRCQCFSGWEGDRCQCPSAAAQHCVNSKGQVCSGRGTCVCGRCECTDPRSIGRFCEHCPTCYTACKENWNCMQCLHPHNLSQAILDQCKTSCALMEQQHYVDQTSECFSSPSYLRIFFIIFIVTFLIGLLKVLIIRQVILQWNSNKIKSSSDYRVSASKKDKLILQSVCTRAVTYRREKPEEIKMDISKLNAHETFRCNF
Description: FACS U251 cells.

Values joined by “and” are separate entries in the source; they are usually repeats but may differ in a detail not shown here. Equal entries are not always repeated.

B1: ADWA11 2.4 IgG (antibody)
chain 1: EVQLVESGGGLVQPGGSLRLSCAASGFNIKDYYMNWVRQAPGKGLEWVGWIDPDQGNTIYEPKFQGRFTISADTSKNSAYLQMNSLRAEDTAVYYCARRLLMDYWGQGTLVTVSSASTKGPSVFPLAPSSKSTSGGTAALGCLVKDYFPEPVTVSWNSGALTSGVHTFPAVLQSSGLYSLSSVVTVPSSSLGTQTYICNVNHKPSNTKVDKKVEPKSCDKTHTCPPCPAPEAAGAPSVFLFPPKPKDTLMISRTPEVTCVVVDVSHEDPEVKFNWYVDGVEVHNAKTKPREEQYNSTYRVVSVLTVLHQDWLNGKEYKCKVSNKALPAPIEKTISKAKGQPREPQVYTLPPSREEMTKNQVSLTCLVKGFYPSDIAVEWESNGQPENNYKTTPPVLDSDGSFFLYSKLTVDKSRWQQGNVFSCSVMHEALHNHYTQKSLSLSPGK
chain 2: DIQMTQSPSSLSASVGDRVTITCRSTKSLSHFNGNTYLFWYQQKPGKAPKRLIYYMSSLASGVPSRFSGSGSGTDFTLTISSLQPEDFATYYCQQSLEYPFTFGGGTKVEIKRTVAAPSVFIFPPSDEQLKSGTASVVCLLNNFYPREAKVQWKVDNALQSGNSQESVTEQDSKDSTYSLSSTLTLSKADYEKHKVYACEVTHQGLSSPVTKSFNRGEC
As a reminder, the EC50 is the concentration needed to bring the measured effect to its halfway point. A lower EC50 goes with greater potency. For B1, the EC50 is 256 pM and 126 pM.

These data come from patent publication US20220289850 (published 2022).
